Columns and labels:
Experiment in all cases: cell-based or functional assay
[1] = target: HIV-1 MGRM-D-001 Env (HIV-1)
[2] = target: HIV-1 APV13 Env (HIV-1)
[3] = target: HIV-1 Env of isolate MGRM-F1-014 (pseudovirus) (HIV-1)
[4] = target: HIV-1 envelope glycoprotein (Env) of isolate JR-FL, on pseudovirus (HIV-1)
[5] = target: HIV-1 JR-CSF Env D325A (HIV-1 isolate JR-CSF) (UniProt P20871)
[6] = target: HIV-1 MGRM-AG-005 Env (HIV-1)
[7] = target: HIV-1 JR-CSF Env V292A (HIV-1 (isolate JR-CSF, clade B)) (UniProt P20871)
[8] = target: HIV-1 envelope glycoprotein (Env) of isolate 92BR020, on pseudovirus (HIV-1)
[9] = target: HIV-1 JR-CSF Env P299A (HIV-1 (isolate JR-CSF, clade B)) (UniProt P20871)
[10] = target: HIV-1 JR-CSF Env N386A (HIV-1 isolate JR-CSF) (UniProt P20871)
[11] = target: HIV-1 JR-CSF Env K305A (HIV-1 (isolate JR-CSF, clade B)) (UniProt P20871)
[12] = target: HIV-1 JR-CSF Env N262A (HIV-1 (isolate JR-CSF)) (UniProt P20871)
[13] = target: HIV-1 MGRM-D-001 envelope glycoprotein (Env) on pseudovirus (HIV-1)
[14] = target: HIV-1 APV17 envelope glycoprotein (Env) on pseudovirus (HIV-1)
[15] = target: HIV-1 APV13 envelope glycoprotein (Env) on pseudovirus (HIV-1)
[16] = target: HIV-1 JR-CSF Env T297A (HIV-1 (isolate JR-CSF, clade B)) (UniProt P20871)
[17] = target: HIV-1 MGRM-A-010 envelope glycoprotein (Env) on pseudovirus (HIV-1)
[18] = target: HIV-1 JR-CSF Env H330A (HIV-1 isolate JR-CSF) (UniProt P20871)
[19] = target: HIV-1 92UG024 envelope glycoprotein (Env) on pseudovirus (HIV-1)
[20] = target: HIV-1 APV6 envelope glycoprotein (Env) on pseudovirus (HIV-1)
[21] = target: HIV-1 JR-CSF Env R327A (HIV-1 isolate JR-CSF) (UniProt P20871)
[22] = target: HIV-1 NL43 envelope glycoprotein (Env) on pseudovirus (HIV-1)
[23] = target: HIV-1 MGRM-C-028 envelope glycoprotein (Env) on pseudovirus (HIV-1)
[24] = target: HIV-1 JR-CSF Env T341A (HIV-1 isolate JR-CSF) (UniProt P20871)

With 5123_A06 (PGT-125) (antibody) the IC50, pseudovirus neutralization [1] was 2.31 µg/mL, the IC50, pseudovirus neutralization [2] was 0.0128 µg/mL and the IC50 (µg/mL), pseudovirus neutralization [3] was over 50 µg/mL. It also gave an IC50, pseudovirus neutralization [4] of 0.009 µg/mL, a Fold IC50 increase relative to wild-type [5] of 0.4 fold and an IC50, pseudovirus neutralization [6] of over 10 µg/mL. The Fold IC50 increase relative to wild-type [7] was 3.3 fold, the IC50, pseudovirus neutralization [8] was 0.016 µg/mL and the Fold IC50 increase relative to wild-type [9] was 0.2 fold. It also gave a Fold IC50 increase relative to wild-type [10] of 0.8 fold.

In the case of 5147_N06 (PGT-130) (antibody), the IC50, pseudovirus neutralization [1] is reported as over 10 µg/mL, the IC50, pseudovirus neutralization [2] is reported as 0.0345 µg/mL and the Fold IC50 increase relative to wild-type [11] is reported as 6.9 fold. For the same substance, the Fold IC50 increase relative to wild-type [12] was 0.7 fold, the Fold IC50 increase relative to wild-type [5] was over 1000 fold and the IC50, pseudovirus neutralization [6] was 0.947 µg/mL. The Fold IC50 increase relative to wild-type [10] was 0.1 fold.

For 5343_B08 (PGT-135) (antibody), the Neutralization IC80 [13] was over 10 µg/mL, the Neutralization IC90 [13] was over 10 µg/mL and the Neutralization IC95 [13] was over 10 µg/mL. It also gave a neutralization IC50 [13] of over 10 µg/mL, a Neutralization IC80 [14] of over 10 µg/mL and a Neutralization IC90 [14] of over 10 µg/mL. The Neutralization IC95 [14] was over 10 µg/mL, the neutralization IC50 [14] was over 10 µg/mL and the Neutralization IC80 [15] was over 10 µg/mL. The Neutralization IC90 [15] was over 10 µg/mL, the Neutralization IC95 [15] was over 10 µg/mL and the neutralization IC50 [15] was 0.545 µg/mL. The Fold IC50 increase relative to wild-type [16] was over 30 fold, the Neutralization IC80 [17] was over 10 µg/mL and the Neutralization IC90 [17] was over 10 µg/mL. The Neutralization IC95 [17] was over 10 µg/mL, the neutralization IC50 [17] was over 10 µg/mL and the Fold IC50 increase relative to wild-type [18] was over 250 fold. For the same substance, the Fold IC50 increase relative to wild-type [12] was 2.1 fold, the Neutralization IC80 [19] was 0.054 µg/mL and the Neutralization IC90 [19] was 0.122 µg/mL. It also gave a Neutralization IC95 [19] of 0.267 µg/mL, a neutralization IC50 [19] of 0.0139 µg/mL and a Neutralization IC80 [20] of over 10 µg/mL. For the same substance, the Neutralization IC90 [20] was over 10 µg/mL, the Neutralization IC95 [20] was over 10 µg/mL and the neutralization IC50 [20] was over 10 µg/mL. The Fold IC50 increase relative to wild-type [21] was 0.67 fold, the Neutralization IC80 [22] was over 10 µg/mL and the Neutralization IC90 [22] was over 10 µg/mL. For the same substance, the Neutralization IC95 [22] was over 10 µg/mL, the neutralization IC50 [22] was 6.79 µg/mL and the Fold IC50 increase relative to wild-type [7] was 2 fold. The Neutralization IC80 [23] was over 10 µg/mL, the Neutralization IC90 [23] was over 10 µg/mL and the Neutralization IC95 [23] was over 10 µg/mL. The neutralization IC50 [23] was 2.16 µg/mL, the Fold IC50 increase relative to wild-type [9] was 0.36 fold and the Fold IC50 increase relative to wild-type [24] was 0.6 fold.

Reference: patent US20240132578A1
